Source: patent publication US20220153869A1 (TAVOTEK BIOTHERAPEUTICS HONG KONG, published 2022)

Legend:
[1] = biological target: T1, HER2 expressed on SK-BR-3 cell surface (UniProt P04626 23-1255, limits assumed); test: flow cytometry on SK-BR-3 cells, PE anti-human secondary
T1 construct: whole, on cells; also called cell surface HER2; HER2-expressing SK-BR-3 cells
Source text: (§1) Flow cytometry-based binding assays were also employed to evaluate the binding to HER2 expressed on cell surface by exemplary HER2 x VEGF bispecific antibodies with or without IGF2 masking domain (FIG. 10). In these assays, increasing concentrations of exemplary HER2 x VEGF bispecific antibodies were applied to HER2-expressing SK-BR-3 cells and their bindings to cell surface HER2 were detected by PE-conjugated anti-human secondary antibody by MacsQuant flow cytometer.

[2] = biological target: T2, recombinant human HER2 (R&D systems) (human, UniProt P04626 23-652); test: ELISA, recombinant human HER2 coated at 1 ug/mL, anti-human IgG-HRP
Description: (§2) ELISA-based binding assays were employed to evaluate the binding to HER2 by exemplary HER2 x VEGF bispecific antibodies with or without IGF2 masking domain (FIG. 9). In these assays, 1 μg/mL recombinant human HER2 (R&D systems) were coated on ELISA plate. Increasing concentrations of exemplary HER2 x VEGF bispecific antibodies were applied on the plate and their bindings to the recombinant human HER2 were detected by HRP-conjugated anti-human IgG secondary antibody.

[3] = biological target: recombinant human PD-L1 (R&D systems) (human, UniProt Q9NZQ7 19-239); test: ELISA, recombinant human PD-L1 coated at 1 ug/mL, anti-human IgG-HRP
Sequence of recombinant human PD-L1 (R&D systems) (Q9NZQ7 19-239 limits assumed): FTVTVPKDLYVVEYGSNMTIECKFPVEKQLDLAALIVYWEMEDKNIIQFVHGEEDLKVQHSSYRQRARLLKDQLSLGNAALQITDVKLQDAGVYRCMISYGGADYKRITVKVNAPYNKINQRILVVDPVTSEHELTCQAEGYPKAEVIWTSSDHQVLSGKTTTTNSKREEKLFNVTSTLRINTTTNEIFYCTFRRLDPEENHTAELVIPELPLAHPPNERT
Description: ELISA-based binding assays were employed to evaluate the binding to PD-L1 by these bispecific antibodies (FIG. 31A). In these assays, 1 μg/mL recombinant human PD-L1 (R&D systems) were coated on ELISA plate. Increasing concentrations of exemplary HER2 x VEGF bispecific antibodies with ScFv of an anti-PD-L1 antibody as a homing domain were applied on the plate and their bindings to the recombinant human PD-L1 were detected by HRP-conjugated anti-human IgG secondary antibody.

[4] = biological target: T1, HER2 expressed on SK-BR-3 cell surface; test: flow cytometry on SK-BR-3 cells; masked antibody, not digested
Source text: as §1

[5] = biological target: T2, recombinant human HER2 (R&D systems); test: ELISA, recombinant human HER2 coated; masked antibody, not digested
Description: as §2

[6] = biological target: T1, HER2 expressed on SK-BR-3 cell surface; test: flow cytometry on SK-BR-3 cells; unmasked reference of the comparison (higher potency than uncut)
Source text: as §1

[7] = biological target: T2, recombinant human HER2 (R&D systems); test: ELISA, recombinant human HER2 coated; unmasked reference of the comparison (higher potency than uncut)
Description: as §2

B1: Beva_IgG1_LS (antibody, V domains shown)
VH: EVQLVESGGGLVQPGGSLRLSCAASGYTFTNYGMNWVRQAPGKGLEWVGWINTYTGEPTYAADFKRRFTFSLDTSKSTAYLQMNSLRAEDTAVYYCAKYPHYYGSSHWYFDVWGQGTLVTVSS
VL: DIQMTQSPSSLSASVGDRVTITCSASQDISNYLNWYQQKPGKAPKVLIYFTSSLHSGVPSRFSGSGSGTDFTLTISSLQPEDFATYYCQQYSTVPWTFGQGTKVEIKR
notes: also called EAC291/EAC207
- binding result [1]: no binding
- binding result [2]: no binding

B2: Tras x Beva_IgG1_LS (bispecific antibody)
heavy 1: not shown
light 1: not shown
heavy 2: EVQLVESGGGLVQPGGSLRLSCAASGYTFTNYGMNWVRQAPGKGLEWVGWINTYTGEPTYAADFKRRFTFSLDTSKSTAYLQMNSLRAEDTAVYYCAKYPHYYGSSHWYFDVWGQGTLVTVSSASTKGPSVFPLAPSSKSTSGGTAALGCLVKDYFPEPVTVSWNSGALTSGVHTFPAVLQSSGLYSLSSVVTVPSSSLGTQTYICNVNHKPSNTKVDKKVEPKSCDKTHTCPPCPAPELLGGPSVFLFPPKPKDTLMISRTPEVTCVVVDVSHEDPEVKFNWYVDGVEVHNAKTKPREEQYNSTYRVVSVLTVLHQDWLNGKEYKCKVSNKALPAPIEKTISKAKGQPREPQVYTLPPSRDELTKNQVSLTCLVKGFYPSDIAVEWESNGQPENNYKTTPPVLDSDGSFFLYSRLTVDKSRWQQGNVFSCSVLHEALHSHYTQKSLSLSPGK
light 2: not shown
notes: also called HER2 x VEGF bispecific antibody
- binding result [3]: no binding

B3: Tras x Beva_IgG1_LS_E345R (bispecific antibody)
heavy 1: not shown
light 1: not shown
heavy 2: EVQLVESGGGLVQPGGSLRLSCAASGYTFTNYGMNWVRQAPGKGLEWVGWINTYTGEPTYAADFKRRFTFSLDTSKSTAYLQMNSLRAEDTAVYYCAKYPHYYGSSHWYFDVWGQGTLVTVSSASTKGPSVFPLAPSSKSTSGGTAALGCLVKDYFPEPVTVSWNSGALTSGVHTFPAVLQSSGLYSLSSVVTVPSSSLGTQTYICNVNHKPSNTKVDKKVEPKSCDKTHTCPPCPAPELLGGPSVFLFPPKPKDTLMISRTPEVTCVVVDVSHEDPEVKFNWYVDGVEVHNAKTKPREEQYNSTYRVVSVLTVLHQDWLNGKEYKCKVSNKALPAPIEKTISKAKGQPRRPQVYTLPPSRDELTKNQVSLTCLVKGFYPSDIAVEWESNGQPENNYKTTPPVLDSDGSFFLYSRLTVDKSRWQQGNVFSCSVLHEALHSHYTQKSLSLSPGK
light 2: not shown
- binding result [3]: no binding

B4: IGF2_MMP2_TrasVH1VL1 x BevaVH3VL1_IgG1_LS_E345R uncut (bispecific antibody)
heavy 1: GILEECCFRSCDLALLETYCAGGGGSPLGLAGGGGGSQVQLVQSGAEVKKPGSSVKVSCKASGFNIKDTYIHWVRQAPGQGLEWMGRIYPTNGYTRYAQKFQGRATITADESTSTAYMEVSSLRSEDTAVYYCSRWGGDGFYAMDYWGQGTLVTVSSASTKGPSVFPLAPSSKSTSGGTAALGCLVKDYFPEPVTVSWNSGALTSGVHTFPAVLQSSGLYSLSSVVTVPSSSLGTQTYICNVNHKPSNTKVDKKVEPKSCDKTHTCPPCPAPELLGGPSVFLFPPKPKDTLMISRTPEVTCVVVDVSHEDPEVKFNWYVDGVEVHNAKTKPREEQYNSTYRVVSVLTVLHQDWLNGKEYKCKVSNKALPAPIEKTISKAKGQPRRPQVYTLPPSRDELTKNQVSLTCLVKGFYPSDIAVEWESNGQPENNYKTTPPVLDSDGSFLLYSKLTVDKSRWQQGNVFSCSVLHEALHSHYTQKSLSLSPGK
light 1: AYRPSETLCGGELVDTLQFVCGDRGFAFGGGGSPLGLAGGGGGSDIVMTQTPLSLPVTPGEPASISCRASQDVNTAVAWYLQKPGQSPQLLIYSASFRYTGVPDRFSGSGSGTDFTLKISRVEAEDVGVYYCQQHYTTPPTFGQGTKVEIKRTVAAPSVFIFPPSDEQLKSGTASVVCLLNNFYPREAKVQWKVDNALQSGNSQESVTEQDSKDSTYSLSSTLTLSKADYEKHKVYACEVTHQGLSSPVTKSFNRGEC
heavy 2: GILEECCFRSCDLALLETYCAGGGGSPLGLAGGGGGSQVQLVQSGAEVKKPGSSVKVSCKASGYTFTNYGMNWVRQAPGQGLEWMGWINTYTGEPTYAQKFQGRVTITADESTSTAYMELSSLRSEDTAVYYCAKYPHYYGSSHWYFDVWGQGTLVTVSSASTKGPSVFPLAPSSKSTSGGTAALGCLVKDYFPEPVTVSWNSGALTSGVHTFPAVLQSSGLYSLSSVVTVPSSSLGTQTYICNVNHKPSNTKVDKKVEPKSCDKTHTCPPCPAPELLGGPSVFLFPPKPKDTLMISRTPEVTCVVVDVSHEDPEVKFNWYVDGVEVHNAKTKPREEQYNSTYRVVSVLTVLHQDWLNGKEYKCKVSNKALPAPIEKTISKAKGQPRRPQVYTLPPSRDELTKNQVSLTCLVKGFYPSDIAVEWESNGQPENNYKTTPPVLDSDGSFFLYSRLTVDKSRWQQGNVFSCSVLHEALHSHYTQKSLSLSPGK
light 2: not shown
- binding result [4]: binds
- binding result [5]: binds

B5: TrasVH1VL1 x BevaVH3VL1_IgG1_LS (bispecific antibody)
heavy 1: QVQLVQSGAEVKKPGSSVKVSCKASGFNIKDTYIHWVRQAPGQGLEWMGRIYPTNGYTRYAQKFQGRATITADESTSTAYMEVSSLRSEDTAVYYCSRWGGDGFYAMDYWGQGTLVTVSSASTKGPSVFPLAPSSKSTSGGTAALGCLVKDYFPEPVTVSWNSGALTSGVHTFPAVLQSSGLYSLSSVVTVPSSSLGTQTYICNVNHKPSNTKVDKKVEPKSCDKTHTCPPCPAPELLGGPSVFLFPPKPKDTLMISRTPEVTCVVVDVSHEDPEVKFNWYVDGVEVHNAKTKPREEQYNSTYRVVSVLTVLHQDWLNGKEYKCKVSNKALPAPIEKTISKAKGQPREPQVYTLPPSRDELTKNQVSLTCLVKGFYPSDIAVEWESNGQPENNYKTTPPVLDSDGSFLLYSKLTVDKSRWQQGNVFSCSVLHEALHSHYTQKSLSLSPGK
light 1: DIVMTQTPLSLPVTPGEPASISCRASQDVNTAVAWYLQKPGQSPQLLIYSASFRYTGVPDRFSGSGSGTDFTLKISRVEAEDVGVYYCQQHYTTPPTFGQGTKVEIKRTVAAPSVFIFPPSDEQLKSGTASVVCLLNNFYPREAKVQWKVDNALQSGNSQESVTEQDSKDSTYSLSSTLTLSKADYEKHKVYACEVTHQGLSSPVTKSFNRGEC
heavy 2: QVQLVQSGAEVKKPGSSVKVSCKASGYTFTNYGMNWVRQAPGQGLEWMGWINTYTGEPTYAQKFQGRVTITADESTSTAYMELSSLRSEDTAVYYCAKYPHYYGSSHWYFDVWGQGTLVTVSSASTKGPSVFPLAPSSKSTSGGTAALGCLVKDYFPEPVTVSWNSGALTSGVHTFPAVLQSSGLYSLSSVVTVPSSSLGTQTYICNVNHKPSNTKVDKKVEPKSCDKTHTCPPCPAPELLGGPSVFLFPPKPKDTLMISRTPEVTCVVVDVSHEDPEVKFNWYVDGVEVHNAKTKPREEQYNSTYRVVSVLTVLHQDWLNGKEYKCKVSNKALPAPIEKTISKAKGQPREPQVYTLPPSRDELTKNQVSLTCLVKGFYPSDIAVEWESNGQPENNYKTTPPVLDSDGSFFLYSRLTVDKSRWQQGNVFSCSVLHEALHSHYTQKSLSLSPGK
light 2: not shown
- binding result [6]: binds
- binding result [7]: binds

B6: TrasVH1VL1 x BevaVH3VL1_IgG1_LS_E345R (bispecific antibody)
heavy 1: QVQLVQSGAEVKKPGSSVKVSCKASGFNIKDTYIHWVRQAPGQGLEWMGRIYPTNGYTRYAQKFQGRATITADESTSTAYMEVSSLRSEDTAVYYCSRWGGDGFYAMDYWGQGTLVTVSSASTKGPSVFPLAPSSKSTSGGTAALGCLVKDYFPEPVTVSWNSGALTSGVHTFPAVLQSSGLYSLSSVVTVPSSSLGTQTYICNVNHKPSNTKVDKKVEPKSCDKTHTCPPCPAPELLGGPSVFLFPPKPKDTLMISRTPEVTCVVVDVSHEDPEVKFNWYVDGVEVHNAKTKPREEQYNSTYRVVSVLTVLHQDWLNGKEYKCKVSNKALPAPIEKTISKAKGQPRRPQVYTLPPSRDELTKNQVSLTCLVKGFYPSDIAVEWESNGQPENNYKTTPPVLDSDGSFLLYSKLTVDKSRWQQGNVFSCSVLHEALHSHYTQKSLSLSPGK
light 1: DIVMTQTPLSLPVTPGEPASISCRASQDVNTAVAWYLQKPGQSPQLLIYSASFRYTGVPDRFSGSGSGTDFTLKISRVEAEDVGVYYCQQHYTTPPTFGQGTKVEIKRTVAAPSVFIFPPSDEQLKSGTASVVCLLNNFYPREAKVQWKVDNALQSGNSQESVTEQDSKDSTYSLSSTLTLSKADYEKHKVYACEVTHQGLSSPVTKSFNRGEC
heavy 2: QVQLVQSGAEVKKPGSSVKVSCKASGYTFTNYGMNWVRQAPGQGLEWMGWINTYTGEPTYAQKFQGRVTITADESTSTAYMELSSLRSEDTAVYYCAKYPHYYGSSHWYFDVWGQGTLVTVSSASTKGPSVFPLAPSSKSTSGGTAALGCLVKDYFPEPVTVSWNSGALTSGVHTFPAVLQSSGLYSLSSVVTVPSSSLGTQTYICNVNHKPSNTKVDKKVEPKSCDKTHTCPPCPAPELLGGPSVFLFPPKPKDTLMISRTPEVTCVVVDVSHEDPEVKFNWYVDGVEVHNAKTKPREEQYNSTYRVVSVLTVLHQDWLNGKEYKCKVSNKALPAPIEKTISKAKGQPRRPQVYTLPPSRDELTKNQVSLTCLVKGFYPSDIAVEWESNGQPENNYKTTPPVLDSDGSFFLYSRLTVDKSRWQQGNVFSCSVLHEALHSHYTQKSLSLSPGK
light 2: not shown
- binding result [6]: binds
- binding result [7]: binds
